Results as given in the supplement of paper PMC9170038.

Tested on: MS2 coat protein
Experiment: apparent KD of MS2 coat protein; designed switch direction (-1 OFF switch, 1 ON switch): 1; higher = weaker reporter binding
Outline: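 Designed RNA switches sharing common flanks were transcribed on Illumina chips by stalled E. coli RNA polymerase. They were titrated with SNAP-549-labelled MS2 coat protein, from 0.7 or 1.5 nM doubling to 3 µM, in Tris-HCl pH 7.5 buffer with KCl, MgCl2, BSA, DTT, tRNA and Tween-20. Titrations ran without input, with 200 uM small-molecule ligand, or with an oligonucleotide input. The apparent KD of each design is the median over its clusters, after curve-fitting of normalised cluster fluorescence.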

[1] = input ligand: microRNA oligo, concentration not stated
[2] = Eterna round: R95, input ligand: microRNA oligo, concentration not stated
[3] = Eterna round: R95, input ligand: FMN 200 uM
[4] = Eterna round: R95, input ligand: none

Sequence | apparent KD of MS2 coat protein (input ligand: FMN 200 uM) | apparent KD of MS2 coat protein [1] | apparent KD of MS2 coat protein (input ligand: none) | apparent KD of MS2 coat protein [2] | apparent KD of MS2 coat protein [3] | apparent KD of MS2 coat protein [4]
UGAAUAGUUACAGGAUAUGAUCCGAAAAUUGGGUCAGAAGGGUGGGUGUUGUGCGCUAUGUGCUACAUGAGGAUCACCCAUGUU [SameState NG1 #36] (Eterna round: R96, puzzle: Same State NG 1) | 341 nM | 22.5 nM | 41.2 nM |  |  | 
GAGAGAGGGUGAGGAUAUUCAGUAAUAAUGAUAGAAGAAGGCACAGACAUGAGGAUCACCCAUGUGGGAAUAAUCCAGAGAGAG [Parity 3 - Jieux - Same State NG 1] (Eterna round: R96, puzzle: Same State NG 1) |  | 158 nM |  |  |  | 
GGUCGGACUCACAUGAGGAUCACCCAUGUUCCGGAAACGGGACAGGAUAUCUGUCCGAAAAGGUCAGAGAAGGGUCUACCGACC [Fiskers NG3ss - 54] (Eterna round: R96, puzzle: Same State NG 3) | 353 nM | 126 nM | 289 nM |  |  | 
GCUCUACAUGAGGAUCACCCAUGUCCAUCCGCACGAGGAUAUGCAUGGGCGAAAGCUGGUGCAGAAGGCGUGGGAC [Tr3Pin] (puzzle: Same State 1) |  |  |  | 409 nM |  | 
AAAACAUGACGAGGAUAUGGUACAUGAGGAUCACCCAUGUAUGUACCACGACGCGUACGUCGAAUCCAGAAGGCGUCGUGAAAA [Mat - Same State NG 2 - JL mod - D19] (Eterna round: R96, puzzle: Same State NG 2) | 20.3 nM | 68.5 nM | 74.1 nM |  |  | 
UUGCUCGUGUAAGGAUAUGCAGCCGUUUCGGCUGCAGAAGGUACUAUAAUACAUGAGGAUCACCCAUGUCUCUAUUAUUUAGUG [salish99_SSNG1_r04_925] (Eterna round: R96, puzzle: Same State NG 1) | 43 nM | 38.3 nM | 49.4 nM |  |  | 
GCUCCAUUACGAGGAUAUGGGAAAGGAAGUGUACCAGAAGGCGUGAAAAGGUACAUGAGGAUCACCCAUGUACCCGGGAGCAAA [PowerStrip SSNG 1.11] (Eterna round: R96, puzzle: Same State NG 1) | 23.1 nM | 19.6 nM | 20.3 nM |  |  | 
CGGCGCUGUCGAGAGGAUAUGCGGUGAUGGACAUGAGGAUCACCCAUGUUAGCGAUAGCAUCACGGUAGAAGGCUCCACAGCCGU [Soteed Omei mod 13] (puzzle: Same State 2) |  |  |  | 23 nM |  | 
GUGGUCAGACAUGAGGAUCACCCAUGUGGAAUAAAUAACGUACAGGAUAUUGAAUAUAGGAUAUACAAGAAGGGUAGAUUGGUG (Eterna round: R96, puzzle: Same State NG 3) | 167 nM | 115 nM | 127 nM |  |  | 
GCGAAGAGGUAAGGAUAUGCAUGGCGGAGACAUGAGGAUCACCCAUGUUGGAGACGAAAUCUAGGGUAGAAGGUACCAGGACGC [AK SSNG2-V2-13] (Eterna round: R96, puzzle: Same State NG 2) | 41.5 nM | 64.6 nM | 72.9 nM |  |  | 
UAUUGUUCCUGAGGAUAUCAGUUGUUUGCAUUAUGAGAAGGCAGUACAUGAGGAUCACCCAUGUUGGGAUUUGAUAGAAUGAUA [JR_SSNG1_Sub007] (Eterna round: R96, puzzle: Same State NG 1) |  | 133 nM |  |  |  | 
GGAGCCGGCACUGAGGAUAUUCAUAAUAAAACAUGAGGAUCACCCAUGUAGGCCAGAAGGCCUUGGGAGAAGGCAGGUCGGCUCA [Mat - Same State 2 - Mod of UCT - D66] (puzzle: Same State 2) |  |  |  | 153 nM | 18.3 nM | 217 nM
GGUAGGUUACUACCAAACAUGAGGAUCACCCAUGUAAGUGGGAAGGAUAUGGUACCGUUUCGGUACCAGAAGGUCCAUAUAGUA [JL Fiskers NG3ss - 2 mod 11] (Eterna round: R96, puzzle: Same State NG 3) | 232 nM | 658 nM | 1530 nM |  |  | 
UCAGUCAUGUAAGGAUAUGCAGCCGAAACGGCUGCAGAAGGUACUAUAAUUACAUGAGGAUCACCCAUGUUAUAAAAUUUAUAU [Mat - Same State NG 1 - JL mod - D64] (Eterna round: R96, puzzle: Same State NG 1) | 24.4 nM | 44.9 nM | 58.8 nM |  |  | 
GGAGCCGGCCUAGGAUAUUUCAUAAUAAAACAUGAGGAUCACCCAUGUAGGCCAGAAGGCCUUGGGAAGAAGGAGGUCGGCUCC [Loop Effect - U26] (Eterna round: R96, puzzle: Same State NG 2) | 12.1 nM | 30.2 nM | 47 nM |  |  | 
AUAGUUGCCGAAGGAUAUGAUGAGGAUCACCCAUCAGAAGGUUGGCUAUUGGGUGGACAUGAGGAUCACCCGUGUUCUUUGGUA (Eterna round: R96, puzzle: Same State NG 1) | 50.3 nM | 47.5 nM | 82.1 nM |  |  | 

Sequence | apparent KD of MS2 coat protein (input ligand: FMN 200 uM) | apparent KD of MS2 coat protein [1] | apparent KD of MS2 coat protein (input ligand: none) | apparent KD of MS2 coat protein [2] | apparent KD of MS2 coat protein [3] | apparent KD of MS2 coat protein [4]
CGGCUCCGUGGAGGAUAUGGGCCUGCCCGGGAUACCGGGCCUAACACAUGAGGAUCACCCAUGUCCCAGAAGGCCGCUGGAGCC [Cebeladi] (Eterna round: R96, puzzle: Same State NG 2) | 12.7 nM | 26.2 nM | 52.3 nM |  |  | 
GUUUGAUGGUGAGGAUAUGUACAAAGAUAGGGUAUAGAAGGCAUGCGCCGGGAAACCGCGGUACAUGAGGAUCACCCAUGUGUC [Eternabot solution 36] (Eterna round: R96, puzzle: Same State NG 1) | 207 nM | 54.9 nM | 121 nM |  |  | 
UCUUGGUUUUUGCUCGUUUUUUGUGUUGAACAUGAGGAUCACCCAUGUAUUGUACAGUCCAAUUUGAUAAUGGUCCG [JMF 54] (puzzle: Sensor for hsa-mir-208a) |  |  |  | 32.3 nM | 37.6 nM | 44 nM
AUAUGAGGAGCAGGAUAUGCGGAGAAGAAAGAAGCAGAAGGGCUCAUGGGACGACAUGAGGAUCACCCAUGUACUCCGCGAUGA [AK SSNG1-V2-5] (Eterna round: R96, puzzle: Same State NG 1) | 103 nM | 520 nM | 1350 nM |  |  | 
AGUCCAGCCUGAGCUGGACAAAAGCAUGUACAUGAGGAUCACCCAUGUUCAUGUACAAGCUUUUUGCUCGUCAUAAA [Mat - hsa-mir-208a - Mod of JL - 51] (puzzle: Sensor for hsa-mir-208a) |  |  |  | 14.9 nM | 402 nM | 474 nM
UUUAGAUUCAGAGGAUAUUGAUGUUGUAUUUUACAAGAAGGCUGAUUGGUUUGAAUUGUUUUUUAACAUGAGGAUCACCCAUGU [JR_SSNG1_Sub011] (Eterna round: R96, puzzle: Same State NG 1) |  | 19.2 nM |  |  |  | 
UGUUAGUAGACAGGAUAUUGAAUGUUAAGUAUUAACAUGAGGAUCACCCAUGUAUUAGAUUGGUACAAGAAGGGUCAAGUUUGU [JR_SSNG2_Sub012] (Eterna round: R96, puzzle: Same State NG 2) |  | 242 nM |  |  |  | 
GUGCUCGUGUGAGGAUAUGCUUCCGGGUCGGCUGCAGAAGGUACUAUUAUACAUGAGGAUCACCCAUGUCGCUUUUCUCCGGUG [salish99_SSNG1_r04_917] (Eterna round: R96, puzzle: Same State NG 1) | 48.2 nM | 29.2 nM | 38.4 nM |  |  | 
UGGCUGGUGCUAGGAUAUGCAUGAGGAAUCCUCGUAGAAGGAGCACGACAUGAGGAUCACCCAUGUAGCCGUCCGUAGACGGCU [salish99_SSNG1_r04_009] (Eterna round: R96, puzzle: Same State NG 1) | 98.7 nM | 26.3 nM | 91.8 nM |  |  | 
GCGAGCGUACUUGCAACAUGAGGAUCACCCAUGUUAACUGGACAGGAUAUGGUACCGUUUCGGUACCAGAAGGGUUCAUCAUGU [JL SSNG3 3.67] (Eterna round: R96, puzzle: Same State NG 3) | 74.1 nM | 147 nM | 183 nM |  |  | 
AGUAGUUUAACAUGAGGAUCACCCAUGUAUCUAUCUGUAACCUAGGAUAUGGAGGUUUUAUUUAACCAGAAGGAGGAUUGUUUA [JR_SSNG3_Sub044] (Eterna round: R96, puzzle: Same State NG 3) | 19.8 nM | 17.6 nM | 24.2 nM |  |  | 
ACGUGGCUGCCGCAGGAUAUACCCUGUUCCACAUGAGGAUCACCCAUGUUUACGAACUAUGAGAGGUAGAAGGGUGGAUGUCAUU [Beenvean] (Eterna round: R96, puzzle: Same State 2) | 12.2 nM | 18.9 nM | 30.7 nM |  |  | 
CGUAGGUAGCUGGAGGAUAUCCGAGUGGUAACAUGAGGAUCACCCAUGUGAUGUGAGGAACAUGAGGAGAAGGCUAGCUGCCUGC [JL-ss2-3.12 JL mod] (puzzle: Same State 2) |  |  |  | 37.5 nM | 23.1 nM | 38.2 nM
AAGAAUCUAUCUCAGGAUAUCAUGUCAAAGACAUGAGGAUCACCCAUGUACCAGGAAACUGGUUAUGAGAAGGGAGAUAGAUUCU [Mat - Same State 2 - Mod - D32] (puzzle: Same State 2) |  |  |  | 30.6 nM | 99.4 nM | 282 nM
UUAAUGAUGAAAGGAUAUACAUGAGGAAUUCUCGUAGAAGGUUCAUGACAUGAGGAUCACCCAUGUAUCGCUCCGUAGAGCGUA [JL SSNG1 1.13] (Eterna round: R96, puzzle: Same State NG 1) | 713 nM | 38.4 nM | 82.6 nM |  |  | 
